Among the data in the supplement of paper PMC12042874 are amyloid nucleation score values, retold here.

± gives the uncertainty stated by the source.

The data set can be described thus: amyloid nucleation score (Sup35N fusion, yeast selection) (log enrichment); library NNK3; higher = more nucleation; inactive = no reads after selection. Put shortly: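 Peptides of 20 random codons fused to Sup35N were expressed in psi-negative yeast, induced 24 hours with 100 μM copper sulfate, then grown 7 days at 30°C on medium lacking adenine and uracil. Input and output plasmid inserts were Illumina-sequenced. Nucleation score is the DiMSum log enrichment of output over input reads, centred on the mode score of non-aggregating sequences, excluding sequences with under 100 input reads. Random libraries had three technical output replicates.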
With DTVMRSVLEAIVYINKIFVR, the amyloid nucleation score entry was “inactive”.
For DTYIGNINESMH the value was “inactive”.
As for DVCGFYIHFRFTNKYQGVAS, the amyloid nucleation score result was “inactive”.
For the substance DVCLGWAQTAFRCLMRG, the amyloid nucleation score result was “inactive”.
For DVFSNMSWYYCNVIWNAYDM the value was 0.196 ± 0.52.
For DVLLVIKVDYQVGLARVSRL the value was “inactive”.
For DVPVKNSYDFMYDCWAMPCS, the amyloid nucleation score entry is “inactive”.
Consider DVRFVRDAGAVFLIILSERH, for which the amyloid nucleation score entry is “inactive”.
For DVRRWNNYDLRGWVVA the value was “inactive”.
Regarding DVTTDDSSFRYMLKLLRGIT, the amyloid nucleation score entry was “inactive”.
As for DVYKNPLSEQPSRYCTE, the amyloid nucleation score result was “inactive”.
With DWLMPIFQVNIEMLWLSWLW the entry was “inactive”; with DWVMADRMSPVKIMYATSSG, “inactive”; with DYESCEIRVLETEWIGVGT, “inactive”.
For DYGSFMYSLTSCMVNYWYMA the value was “inactive”; for DYIRHSFHCVLILSDKSHFS, “inactive”.
For DYSHLCSNIQGIAFVVVIQN the value was “inactive”.
For the substance DYTGT, the amyloid nucleation score is -0.191 ± 0.74.
For DYYGLK the value was “inactive”; for DYYSCFISYRLIRYWICGEA, “inactive”.
With EAYDGKSSICSRCS the entry was “inactive”.
With ECCDFSGCRCTSS the figure was -0.498 ± 0.91.
Take ECYCWFVNWLSFCKNGYSGM: the amyloid nucleation score result was “inactive”.
Turning to EDAWMIVRISGC, the amyloid nucleation score entry is “inactive”.
For EDFLNSWKVSYWKNHTMVVW the value was “inactive”.
In the case of EDHCSLFKLSAFTAYTGLAL, the amyloid nucleation score result is “inactive”.
With EDSRLLGC the figure was 0.724 ± 0.14; with EEMLRHCHKIRERWGSKSFE, “inactive”; with EERRDLAPTDLTWKDFRALQ, “inactive”.
In turn, EFFAPSVTDQMLTFRLLYKT had an amyloid nucleation score of 0.821 ± 0.26.
For EFMAGNDSRIQCSRIRGCYG the value was “inactive”; for EFSVLWMLQMDHSTLKFANS, “inactive”; for EFYFATRMMF, 1.09 ± 0.092.
With EGFPV the entry was “inactive”; with EGMEWVVEDNFRKMCYTARF, “inactive”.
For EGNMLASRSSGEPS the value was “inactive”.
For EGPVSGPC, the amyloid nucleation score result is “inactive”.
For EGRNFRCLFG the value was “inactive”.
Turning to EGRSNNLCSSSSLWQVHAAL, the amyloid nucleation score entry is “inactive”.
Consider EGSHVPIILGYREFCVFILT, for which the amyloid nucleation score entry was “inactive”.
As for EGSNI, the amyloid nucleation score came to 1.05 ± 0.17.
With EGVFHACDSTGT the figure was -0.737 ± 1.5.
With EICGCCWKPVMWTGRCSCVY the entry was “inactive”; with EICKSLKLCNIWNCRIMLRS, “inactive”; with EIGSHIGDVQHRVFYNVTLV, “inactive”.
With EIQSVMLYIASTFSILYLRH the entry was “inactive”; with EKFRWQSISIEVECSMAVQH, “inactive”; with EKLIVNDYCRRSGPDMVAVD, “inactive”.
Take EKMAADQSS: the amyloid nucleation score entry is “inactive”.
For EKYRNGGY the value was “inactive”.
With ELFILHSGGGWCSGI the figure was 0.926 ± 0.16.
With ELFMPDSIRT the entry was “inactive”; with ELGFCNWGGLSWLNQDSSGV, -0.085 ± 1.
In the case of ELLVNN, the amyloid nucleation score result is “inactive”.
With EMSWRSVKSSHYKQMEFSGR the entry was “inactive”; with ENCAWSRIIRRFNECNTLV, “inactive”.
With ENERM the entry was “inactive”; with EPGSANRSSESNCRVGGTDD, “inactive”; with EPTVC, “inactive”.
With EQKGKQFEVSVDSYSTWEVG the entry was “inactive”.
Regarding EQRLSSGRWVS, the amyloid nucleation score entry is “inactive”.
With ERFYTLVI, the amyloid nucleation score result was “inactive”.
With ERKCLLCNYHMY the entry was “inactive”; with ERNAGLITAFYFYSPFGTMM, “inactive”; with ERRRVRP, “inactive”.
Consider ERSVPSGE, for which the amyloid nucleation score entry is “inactive”.
For ESAKFYLYSAR the value was “inactive”; for ESFHMFFFQLLSYCFSNCGW, “inactive”; for ESFPFVSASDCSCSNR, “inactive”.
As for ESFWVML, the amyloid nucleation score entry is “inactive”.
With ESIRCFSTYKNGSIRSFRAL the entry was “inactive”; with ESIYVNPGDSL, “inactive”; with ESLAWS, “inactive”.
With ESLIRVICMVDERSEQTWSG the entry was “inactive”.
With ESMRGSYSYYSSGCLHD the entry was “inactive”; with ESWVFRTRDMPGEFTSSVCM, “inactive”.
On to ETFFIYDVALQ, for which the amyloid nucleation score entry was “inactive”.
With ETGDI the figure was 1.64 ± 0.087.
For ETVDSFVM the value was “inactive”.
In turn, EVFHIRMSVF showed an amyloid nucleation score of -0.577 ± 2.4.
With EVIVVKGHGVHIVFCVGSAS the entry was “inactive”; with EVKSDVMKLFNCVFSCPLTF, 2.38 ± 0.073.
As to EVLEFVSNGGMVTEMGP, the amyloid nucleation score entry is “inactive”.
With EVNWSIIRGWVEISYTVPEL, the amyloid nucleation score result was “inactive”.
Regarding EVRPCNMLGLRNIGRGYREN, the amyloid nucleation score result is “inactive”.
With EVVKLVR the entry was “inactive”.
With EVYEMNSIRMRSSELSME the entry was “inactive”.
With EWFCLCWT the entry was “inactive”; with EWGTWSTY, “inactive”.
EWIGVVNVRNDPPSGC: the amyloid nucleation score entry was “inactive”.
In the case of EYAKMSLCPSYRFCVLFASW, the amyloid nucleation score entry is “inactive”.
Turning to EYELESESKCPLDFAFIKKG, the amyloid nucleation score result is “inactive”.
For EYKAPREFPSTNCIHFNLMT the value was “inactive”; for EYRLVKFHSPLFQRIKSIVA, “inactive”.
As for EYTLPRPCRLLIFSDQYSNA, the amyloid nucleation score entry was “inactive”.
With FAFKLWRKVQYVFHLFYPAR the figure was 0.342 ± 0.69; with FALTIGSFSRMNHTVPNPFE, “inactive”; with FCAVALFFNTSVSFIDRSLP, 1.66 ± 0.083.
In turn, FCFLLKALTYHLS yielded an amyloid nucleation score of -0.067 ± 0.75.
FCKLYINQYIYHDSVVVIVG gave an amyloid nucleation score of 2.41 ± 0.06.
For FCLNYDGGWWCRMSCVYNQG the value was “inactive”; for FCLRLTYVRS, 0.757 ± 0.22; for FCLVLGVWNLVPPGVKSMMQ, 0.889 ± 0.14.
With FCRLGIRSVFIYFKVTSLIV the figure was 0.049 ± 0.47; with FCVEIMSLSVRGCWGYSFGT, “inactive”.
For FCWVLCTP the value was “inactive”.
In the case of FCYVSCLS, the amyloid nucleation score result is “inactive”.
For FDDPHGTVTCED the value was -0.176 ± 0.98; for FDGKMVYFSAEFSFDKFLDR, 1.74 ± 0.11.
FDLPCSYRCSMTYCYGVNGI returned an amyloid nucleation score of 1.02 ± 0.18.
For FDLVFLLYMGMTQ the value was “inactive”; for FDSFLWLTMNWIELIGNILV, “inactive”.
With FDWIE, the amyloid nucleation score result is “inactive”.
For FDYLLYQLCYVYRTYKTVRR the value was “inactive”; for FDYWCKVMSHEYYVEEPNIY, “inactive”.
For FEKGSFLDRTESSHIGGLMH the value was “inactive”.
With FELVIYQIVRIIVRSLADIS the entry was “inactive”; with FERISRSFAYIDIRHIICMF, 1.56 ± 0.11.
For the substance FEWLWIFWYNLFWLWGNYSI, the amyloid nucleation score entry was “inactive”.
Regarding FFASSIYQRALYTVILSSPT, the amyloid nucleation score result was “inactive”.
As to FFCFLDYDYSIFEQVNEGLS, the amyloid nucleation score result is “inactive”.
As to FFCGFRKTAASHFLFLVKDW, the amyloid nucleation score result is “inactive”.
With FFECSRRSSVLVQMS the entry was “inactive”.
With FFLRSGCTIWTNSK the entry was “inactive”; with FFPCTGVRHSRDIAVV, “inactive”; with FFRDQLRRLYLSSALMQFRM, “inactive”.
Regarding FFRNDCGHVFSYVAGSES, the amyloid nucleation score result is “inactive”.
Turning to FFRTGFLVGNSSEYYMQY, the amyloid nucleation score worked out at 0.215 ± 0.46.
For FFSFTISMAWKGQVTELKCQ, the amyloid nucleation score result is “inactive”.
For FFVRH the value was “inactive”; for FFVTR, “inactive”.
For FFYNDVETVCNVICPKVYSD the value was “inactive”; for FGELS, “inactive”.
